Substrate in this data set: NC(=O)c1ccc[n+]([C@@H]2O[C@H](COP(=O)([O-])OP(=O)(O)OC[C@H]3O[C@@H](n4cnc5c(N)ncnc54)[C@H](O)[C@@H]3O)[C@@H](O)[C@H]2O)c1
In words: purified protein. The format is biochemical, Homo sapiens.

The values below come from paper PMC2752052.

B1: Sirt1 (Homo sapiens) (protein)
chain: ADEAALALQPGGSPSAAGADREAASSPAGEPLRKRPRRDGPGLERSPGEPGGAAPEREVPAAARGCPGAAAAALWREAEAEAAAAGGEQEAQATAAAGEGDNGPGLQGPSREPPLADNLYDEDDDDEGEEEEEAAAAAIGYRDNLLFGDEIITNGFHSCESDEEDRASHASSSDWTPRPRIGPYTFVQQHLMIGTDPRTILKDLLPETIPPPELDDMTLWQIVINILSEPPKRKKRKDINTIEDAVKLLQECKKIIVLTGAGVSVSCGIPDFRSRDGIYARLAVDFPDLPDPQAMFDIEYFRKDPRPFFKFAKEIYPGQFQPSLCHKFIALSDKEGKLLRNYTQNIDTLEQVAGIQRIIQCHGSFATASCLICKYKVDCEAVRGDIFNQVVPRCPRCPADEPLAIMKPEIVFFGENLPEQFHRAMKYDKDEVDLLIVIGSSLKVRPVALIPSSIPHEVPQILINREPLPHLHFDVELLGDCDVIINELCHRLGGEYAKLCCNPVKLSEITEKPPRTQKELAYLSELPPTPLHVSEDSSSPERTSPPDSSVIVTLLDQAAKSNDDLDVSESKGCMEEKPQEVQTSRNVESIAEQMENPDLKNVGSSTGEKNERTSVAGTVRKCWPNRVAKEQISRRLDGNQYLFLPPNRYIFHGAEVYSDSEDDVLSSSSCGSNSDSGTCQSPSLEEPMEDESEIEEFYNGLEDEPDVPERAGGAGFGTDGDDQEAINEAISVKQEVTDMNYPSNKS
As a reminder, the Km is the concentration of substrate that gives half-maximal velocity. On to B1, for which the Km worked out at 171 ± 23 µM.
